This test deals with ubiquitin (mono-Ub), untagged, purified (UniProt P0CG47 1-76). As to the kind of experiment: NMR titration.

B1: 6xHis-tagged Doa1 β-Prp (domain or fragment, S. cerevisiae)
chain: GYQLSATLKGHDQDVRDVVAVDDSKVASVSRDGTVRLWSKDDQWLGTVVYTGQGFLNSVCYDSEKELLLFGGKDTMINGVPLFATSGEDPLYTLIGHQGNVCSLSFQDGVVISGSWDKTAKVWKEGSLVYNLQAHNASVWDAKVVSFSENKFLTASADKTIKLWQNDKVIKTFSGIHNDVVRHLAVVDDGHFISCSNDGLIKLVDMHTGDVLRTYEGHESFVYCIKLLPNGDIVSCGEDRTVRIWSKENGSLKQVITLPAISIWSVDCMSNGDIIVGSSDNLVRIFSQEKSRWASEDEI
In the case of B1, the dissociation constant (Kd) – broadly, a measure of binding affinity in units of concentration – was determined as 224 µM.

Source of the values: paper PMC3266742 (Molecular Cell, 2010).
